Changes are numbered by the printed parent chain.
B1: 97A3C2H4 (antibody, V domains shown)
VH: EVKLVESGGGLVQPGGSLKLSCAASGFTFSTYTMSWVRQTPEKRLEWVAYISYGGGSTSYPDTVKGRFTISRDNAKNTLYLQMSSLKSEDTAIYYCTRHVTVVENSMDYWGQGTSVTVSS
VL: DILLTQSPDILSVSPGERVSFSCRASQSIGTSIHWYQQRTNGSPRLLIKYVSESFSGTPSRFSGSGSGTAFTLTINSVESEDIADYYCQQTHSWPWTFGGGTKLEIK
notes: Mouse hybridoma antibody purified on Protein G
B2: L9G7 (antibody, human IgG1, V domains shown)
VH: QIQLVQSGAEVKKPGASVKVSCKASGYTFTSYGISWVRQAPGQGLEWMGWISAYNGNTNYAQKLQGRVTMTTDTSTSTAYMELRSLRSDDTAVYYCARTYYDILTGYYYYGMDVWGQGTTVTVSS
VL: EIVLTQSPGTLSLSPGERATLSCRTSQSVDTYLAWYQQKPGQAPRLLIYDASNRATGIPARFSGSGSGTDFTLTISSLEPEDFAVYYCQQRSNWPLTFGGGTKVEIK
B3: L1D12 (antibody, human IgG1, V domains shown)
VH: QVQLVQSGGGLVQPGGSLRLSCAASGFTVSSNYMSWVRQAPGKGLEWVSVIYSGGSTYYADSVKGRFTISRDNSKNTLYLQMNSLRAEDTAVYYCARGFHDILTGYGMDVWGQGTTVTVSS
VL: SSELTQDPAVSVALGQTVRITCQGDSLRNYYAGWYQQKPGQAPVLVIYGKNNRPSGIPDRFSGSSSGNTASLTITGTQAEDEADYYCSSRDNSGTHLVEFGGGTKLTVL
notes: also called LID12
B4: 111D10D6G3 (antibody, V domains shown)
VH: QVQLQQPGAELVKPGASVKMSCKASGYTFTRHWITWVKQRPGQGLEWIGDIFPGSGSINYNEKFKSEATLTVEKSSSTAYMQLSSLTSEDSAVYYCARGDVDVWGTGTTVTVSS
VL: DIQMTQSPSSLSASLGERVSLTCRASQEIRGYLSWLQQKPNGTIKRLIYAASTLDSGVPKRFSATRSGSDFSLTISSLESEDFADYYCLQYASYPFTFGSGTKLEIK
notes: as for B1
B5: 2-1G11 (antibody, V domains shown)
VH: EVQLVESRGGVVQPGRSLRLSCAASGFTFSSYGMHWVRQAPGKGLEWVAVISYDGSNKYYADSVKGRFTISRDNSKNTLYLQMNSLRAEDAAVYYCARDRVDILTGYSIYGMDVWGQGTTVTVSS
VL: B2 VL with L4M, G9A, T25A, D30S, T31S, N53K
notes: From a human naive scFv phage library; also called human BLyS antibody 2-1G11
B6: L9G7 (antibody, V domains shown)
VH: B2 VH
VL: B2 VL
notes: From a human naive scFv phage library; also called human BLyS antibody L9G7
B7: L1D12 (antibody, V domains shown)
VH: B3 VH
VL: B3 VL
notes: From a human naive scFv phage library; also called human BLyS antibody L1D12; LID12
B8: 97A3C2H4 (antibody, V domains shown)
VH: B1 VH
VL: B1 VL
notes: Mouse hybridoma monoclonal antibody purified on Protein G
B9: 8E7D9C7F5 (antibody, V domains shown)
VH: QVQLQQSGVELARPGASVKLSCKASGYTFTSYGISWVKQRTGQALEWIGEIYPRSGNTYYNEKFKGKATLTADKSSSTAYMELRSLTSEDSAVYFCARSGPITTLVATDYGMDYWGQGTSVTVSS
VL: DIVLTQSPASLAVSLGQRATISCRASKSVSTSSYSYMHWYQQKPGQPPKLLIKFASNLESGVPARFSGSGSGTDFTLNIHPVEEEDAATYYCQHSREFPYTFGGGTKLEIK
notes: as for B8
B10: 111D10D6G3 (antibody, V domains shown)
VH: B4 VH
VL: B4 VL
notes: as for B8

What follows are binders tested against T1, biotinylated hBLyS-ECD (human, UniProt Q9Y275 134-285, biotinylated with Biotin-X-X-NHS (molar ratio 7:1), sites not stated) (assay: ELISA, biotinylated hBLyS-ECD captured on streptavidin; antibody 2.67 nM).
T1 construct: The hBLyS-ECD of Embodiment 1 after biotinylation (Embodiment 2); also called biotinylated immunogen; BLyS protein; not shown: His tag of the pCPC vector
T1 sequence (Q9Y275 134-285): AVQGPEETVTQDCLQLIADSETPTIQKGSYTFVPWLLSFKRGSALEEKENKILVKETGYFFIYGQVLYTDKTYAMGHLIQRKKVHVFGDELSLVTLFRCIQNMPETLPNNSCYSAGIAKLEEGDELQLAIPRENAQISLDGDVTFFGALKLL
Description: (§1) Streptavidin was first diluted to a final concentration of 1.0 μg/mL with PBS, and then 50 μL of diluted streptavidin per well was aliquoted into 96-well ELISA plate, which was subsequently sealed with plastic film and incubated at 4° C. overnight. On the next day the plate was washed four times with the plate washing buffer [PBS buffer containing 0.05% (v/v) Tween20] and added with the blocking solution [PBS buffer containing 0.05% (v/v) Tween20 and 1% (w/w) BSA] and blocked for 2 hours at 37° C. The blocking solution was removed, the biotinylated hBLyS-ECD prepared in Embodiment 2 was diluted with PBS to a final concentration of 50 ng/mL and then aliquoted into the 96-well ELISA plate at 50 μL per well and incubated for 1 hour at 37° C. After rinsing the plate four times with the plate washing buffer [PBS buffer containing 0.05% (v/v) Tween20], 100 μl of the purified lead antibody harvested in Embodiment 1 and 2 was pipetted into each well. After incubation for 1 hour at 37° C., the plate was rinsed four times with the plate washing buffer [PBS buffer containing 0.05% (v/v) Tween20]. HRP-labeled (horseradish peroxidase) secondary antibody (purchased from Sigma) was added in and incubated at 37° C. for 1 hour. The plate was then rinsed four times with the plate washing buffer [PBS buffer containing 0.05% (v/v) Tween20]. 100 μL of TMB substrate was aliquoted into each well and after incubation for 5 minutes at room temperature, 100 μL of stop solution (1.0 N HCl) was aliquoted into each well. A₄₅₀ₙₘ values were read via an ELISA plate reader (SpectraMax M5e purchased from Molecular Devices) and the results were shown in FIGS. 5A-5B and Table 10.
For B1, the OD450 nm was 2.75. B2 gave an OD450 nm of 1.71. B3 was tested, and the OD450 nm was 1.65. B4 gave an OD450 nm of 1.78.

Each binder was assayed against T1, biotinylated hBLyS-ECD (assay: ELISA, biotinylated hBLyS-ECD captured on streptavidin; antibody 0.0213 nM).
Description: as §1
In the case of B1, the OD450 nm is reported as 0.283. Work on B2 yielded an OD450 nm of 0.181. With B3 the OD450 nm was 0.262. For B4, the OD450 nm was 0.194.

These binders were tested against T2, biotinylated hBLyS-ECD (human, UniProt Q9Y275 134-285, biotinylated with Biotin-X-X-NHS (molar ratio 7:1); sites not stated) (assay: competitive ELISA on biotinylated hBLyS-ECD; competitor L9G7).
T2 construct: also called biotinylated immunogen; BLyS protein
T2 sequence (Q9Y275 134-285): as above
Description: The purified human BLyS antibody and hybridoma antibody were subjected to competitive enzyme-linked immunosorbent assay and the epitopes binding by different antibodies were analyzed.
Purified BLyS antibody was first diluted to a final concentration of 1.0 μg/mL with PBS, then aliquoted into a 96-well ELISA plate at 50 μL per well, and the plate was subsequently sealed with plastic film and incubated at 4° C. overnight. On the next day the plate was rinsed four times with the plate washing buffer [PBS buffer containing 0.05% (v/v) Tween20] and mixed with blocking solution [PBS buffer containing 0.05% (v/v) Tween20 and 1% (w/w) BSA], and then blocked at 37° C. for 1 hour. The blocking solution was removed, and the competitive antibody and IgG control were diluted to a final concentration of 40 μg/mL with PBS and then aliquoted into the 96-well ELISA plate at 50 μL per well. The biotinylated hBLyS-ECD was then diluted with PBS to a final concentration of 2 ng/mL and pipetted into the 96-well ELISA plate at 50 μL per well. The final concentration of competitive antibody and hBLyS-ECD was 20 μg/mL and 1 ng/mL, respectively. After incubation at 37° C. for 1 hour, the plate was rinsed four times with the plate washing buffer [PBS buffer containing 0.05% (v/v) Tween20]. 100 μL per well of HRP-labeled (horseradish peroxidase) streptavidin (purchased from Sigma) was added into the plate and the plate was incubated at 37° C. for 1 hour. The plate was then washed four times with the plate washing buffer [PBS buffer containing 0.05% (v/v) Tween20]. 100 μL of TMB substrate was aliquoted into each well and after incubation at room temperature for 5 minutes, 100 μL of stop solution (1.0 N HCl) was aliquoted into each well. A₄₅₀ₙₘ values were read by an ELISA plate reader (SpectraMax M5e, purchased from Molecular Device) and the results were shown in Tables 18A-18B. […] The data shown in the table is the inhibitory rate (%) of the binding level of the original antibody to hBLyS-ECD after addition of the competitive antibody.
With B5 the “inhibitory rate (%)” value was 79%. In the case of B6, the “inhibitory rate (%)” value is reported as 95%. In the case of B7, the “inhibitory rate (%)” value is reported as 90%.

These binders were tested against T2, biotinylated hBLyS-ECD (assay: blocking ELISA: biotinylated hBLyS-ECD on coated BAFF R, antibody 0.0064 nM).
Description: BLyS antibody blocking the binding of the BLyS protein to its receptor BAFF R was detected by the receptor-ligand binding assay of BLyS protein.
(§2) BAFF R (purchased from R & D Systems) was aliquoted into 96-well ELISA plate at 50 ng per well, and the plate was sealed with plastic film and incubated overnight at 4° C. On the next day the plate was washed four times with the plate washing buffer [PBS buffer containing 0.05% (v/v) Tween20] and added with blocking solution [PBS buffer containing 0.05% (v/v) Tween20 and 1% (w/w) BSA], then blocked for 1 hour at room temperature. The blocking solution was removed and 50 μL per well of the lead antibodies prepared in Embodiment 1 and 2 were added followed by the addition of 50 μL per well of the biotinylated hBLyS-ECD prepared in Embodiment 2. After incubation for 1 hour at 37° C., the plate was washed four times with the plate washing buffer [PBS buffer containing 0.05% (v/v) Tween20]. 100 μL per well of HRP-labeled (horseradish peroxidase) avidin (purchased from Sigma) was added and incubated at 37° C. for 1 hour. The plate was then washed four times with the plate washing buffer [PBS buffer containing 0.05% (v/v) Tween20]. 100 μL of TMB substrate was aliquoted into each well and after incubation for 5 minutes at room temperature, then 100 μL of stop solution (1.0 N HCl) was aliquoted into each well. A₄₅₀ₙₘ values were read with an ELISA plate reader (SpectraMax 384plus, Molecular Device) and the results were shown in FIGS. 9A-9B and Table 15. It was shown in Table 15 that the binding of BLyS protein to its receptor BAFF R could be blocked by the BLyS antibody.
B8 was tested, and the OD450 nm was 1.21 OD450 nm. B9 was tested, and the OD450 nm was 1.38 OD450 nm. Work on B10 yielded an OD450 nm of 1.29 OD450 nm.

What follows are binders tested against T1, biotinylated hBLyS-ECD (assay: receptor-ligand blocking ELISA: BAFF R coated, biotinylated hBLyS-ECD added with titrated antibody, HRP-avidin; blocked partner: BAFF R).
Description: as §2
In the case of B1, the “IC50 (read off the curve)” value is reported as about 0.3 nM. For B2, the “IC50 (read off the curve)” value was about 0.7 nM. B3 was tested, and the “IC50 (read off the curve)” value was about 1 nM. For B4, the “IC50 (read off the curve)” value was about 0.1 nM.

These binders were tested against T2, biotinylated hBLyS-ECD (assay: blocking ELISA: biotinylated hBLyS-ECD on coated BAFF R, antibody 100 nM).
Description: as §2
B8 showed an OD450 nm of 0.107 OD450 nm. With B9 the OD450 nm was 0.11 OD450 nm. Work on B10 yielded an OD450 nm of 0.605 OD450 nm.
